The source of these data is patent publication US20190367636A1 (Bayer, published 2019).

Assay [1] addresses T1, activated human coagulation factor XI (hFXIa) (human, UniProt P03951 19-625, limits assumed).
T1 construct: also called human factor XIa; human FXIa
Description: SPR (Biacore), binding of lyophilized formulation test sample at t0 to human FXIa, relative to BAY 1213790 reference standard. On the procedure: The binding of the BAY 1213790 test sample and of the BAY 1213790 reference standard to human factor XIa (FXIa) antigen is determined by surface plasmon resonance spectroscopy (SPR, Biacore). The binding affinity of the test sample is compared to the BAY 1213790 reference standard.

The target of assay [2] is T1, activated human coagulation factor XI …. In words: cell-based or functional assay.
Assay [3] shares this target. Description: ELISA, lyophilized formulation after 36 months at 2-8 C, relative to BAY 1213790 reference standard.

B1: BAY1213790 (antibody, human IgG1, kappa, V domains shown)
VH: EVQLLESGGGLVQPGGSLRLSCAASGFTFSQYGMDWVRQAPGKGLEWVSGIGPSGGSTVYADSVKGRFTISRDNSKNTLYLQMNSLRAEDTAVYYCTRGGPYYYYGMDVWGQGTTVTVSS
VL: DIQMTQSPSSLSASVGDRVTITCQASQDISNYLNWYQQKPGKAPKLLIYDASNLETGVPSRFSGSGSGTDFTFTISSLQPEDIATYYCQQADSFPVTFGGGTKVEIKR
notes: Human monoclonal IgG; also called anti-FXIa antibody; anti-hFXIa monoclonal antibody
Consider B1, for which the “Activity relative to reference (Biacore)” value in assay [1] came to 108%. In addition, in assay [2], the “Activity relative to reference (Bioassay), t0” value came to 104% and the “Activity relative to reference (Bioassay), t = 36 months at 2-8 C” value stood at 101%. Besides, in assay [3], the “Activity relative to reference (ELISA)” value came to 104%.
